Article PMC7218409, “The protein architecture of the endocytic coat analyzed by FRET microscopy” (Molecular Systems Biology, 2020)

T1: Ede1-mCherry (S. cerevisiae, UniProt P34216 1-1381)
T1 construct: Ede1 (Eps15/R homolog), S. cerevisiae; gene tagged at its endogenous locus, no truncation told; Linker RTLQVD between protein and C-terminal tag; source: S. cerevisiae, expressed from its endogenous locus, in live cells; not shown: mCherry, C-terminal, kept
T1 sequence (looked up): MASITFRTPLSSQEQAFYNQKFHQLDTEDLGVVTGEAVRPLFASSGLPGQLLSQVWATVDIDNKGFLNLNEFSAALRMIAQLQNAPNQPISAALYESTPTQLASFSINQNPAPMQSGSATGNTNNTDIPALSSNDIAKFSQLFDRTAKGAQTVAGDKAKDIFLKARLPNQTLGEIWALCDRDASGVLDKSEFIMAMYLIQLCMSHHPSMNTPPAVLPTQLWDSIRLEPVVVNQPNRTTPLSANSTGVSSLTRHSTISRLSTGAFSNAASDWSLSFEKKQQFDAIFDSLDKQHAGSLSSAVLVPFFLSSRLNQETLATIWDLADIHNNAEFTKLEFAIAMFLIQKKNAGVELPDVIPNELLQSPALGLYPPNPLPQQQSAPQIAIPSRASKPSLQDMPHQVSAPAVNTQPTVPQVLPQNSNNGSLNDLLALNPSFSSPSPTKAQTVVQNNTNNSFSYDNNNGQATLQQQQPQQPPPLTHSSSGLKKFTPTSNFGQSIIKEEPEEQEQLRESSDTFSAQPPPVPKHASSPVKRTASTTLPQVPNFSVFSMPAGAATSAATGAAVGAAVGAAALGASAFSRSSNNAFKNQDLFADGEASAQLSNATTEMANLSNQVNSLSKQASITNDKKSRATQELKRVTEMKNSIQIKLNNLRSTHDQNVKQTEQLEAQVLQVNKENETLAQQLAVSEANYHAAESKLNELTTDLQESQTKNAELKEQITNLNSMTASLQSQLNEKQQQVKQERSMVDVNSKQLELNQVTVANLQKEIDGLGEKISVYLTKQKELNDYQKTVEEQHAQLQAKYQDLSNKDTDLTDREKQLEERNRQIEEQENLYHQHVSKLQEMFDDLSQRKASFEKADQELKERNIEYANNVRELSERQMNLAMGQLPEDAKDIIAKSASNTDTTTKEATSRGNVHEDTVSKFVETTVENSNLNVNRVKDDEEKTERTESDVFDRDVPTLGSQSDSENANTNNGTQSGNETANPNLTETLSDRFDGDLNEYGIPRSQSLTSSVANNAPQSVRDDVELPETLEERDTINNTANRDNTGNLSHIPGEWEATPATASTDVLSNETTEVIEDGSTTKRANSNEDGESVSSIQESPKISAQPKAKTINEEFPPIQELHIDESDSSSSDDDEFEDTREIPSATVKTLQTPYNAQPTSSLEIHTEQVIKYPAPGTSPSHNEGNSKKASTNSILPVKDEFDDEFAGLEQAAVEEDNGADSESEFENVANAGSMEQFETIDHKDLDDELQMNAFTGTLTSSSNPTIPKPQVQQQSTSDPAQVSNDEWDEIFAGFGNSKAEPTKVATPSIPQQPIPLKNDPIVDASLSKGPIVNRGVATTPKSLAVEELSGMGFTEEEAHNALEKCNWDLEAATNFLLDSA

T2: Pan1, full length, with a C-terminal fluorescent tag (S. cerevisiae, UniProt P32521 1-1480)
T2 construct: Pan1, S. cerevisiae; gene tagged at its endogenous locus; Linker RTLQVD between protein and C-terminal tag; also called Pan1-mCherry; C-terminus of Pan1; source: S. cerevisiae, expressed from its endogenous locus, in live cells; not shown: GFP or mCherry, C-terminal, kept
T2 sequence (looked up): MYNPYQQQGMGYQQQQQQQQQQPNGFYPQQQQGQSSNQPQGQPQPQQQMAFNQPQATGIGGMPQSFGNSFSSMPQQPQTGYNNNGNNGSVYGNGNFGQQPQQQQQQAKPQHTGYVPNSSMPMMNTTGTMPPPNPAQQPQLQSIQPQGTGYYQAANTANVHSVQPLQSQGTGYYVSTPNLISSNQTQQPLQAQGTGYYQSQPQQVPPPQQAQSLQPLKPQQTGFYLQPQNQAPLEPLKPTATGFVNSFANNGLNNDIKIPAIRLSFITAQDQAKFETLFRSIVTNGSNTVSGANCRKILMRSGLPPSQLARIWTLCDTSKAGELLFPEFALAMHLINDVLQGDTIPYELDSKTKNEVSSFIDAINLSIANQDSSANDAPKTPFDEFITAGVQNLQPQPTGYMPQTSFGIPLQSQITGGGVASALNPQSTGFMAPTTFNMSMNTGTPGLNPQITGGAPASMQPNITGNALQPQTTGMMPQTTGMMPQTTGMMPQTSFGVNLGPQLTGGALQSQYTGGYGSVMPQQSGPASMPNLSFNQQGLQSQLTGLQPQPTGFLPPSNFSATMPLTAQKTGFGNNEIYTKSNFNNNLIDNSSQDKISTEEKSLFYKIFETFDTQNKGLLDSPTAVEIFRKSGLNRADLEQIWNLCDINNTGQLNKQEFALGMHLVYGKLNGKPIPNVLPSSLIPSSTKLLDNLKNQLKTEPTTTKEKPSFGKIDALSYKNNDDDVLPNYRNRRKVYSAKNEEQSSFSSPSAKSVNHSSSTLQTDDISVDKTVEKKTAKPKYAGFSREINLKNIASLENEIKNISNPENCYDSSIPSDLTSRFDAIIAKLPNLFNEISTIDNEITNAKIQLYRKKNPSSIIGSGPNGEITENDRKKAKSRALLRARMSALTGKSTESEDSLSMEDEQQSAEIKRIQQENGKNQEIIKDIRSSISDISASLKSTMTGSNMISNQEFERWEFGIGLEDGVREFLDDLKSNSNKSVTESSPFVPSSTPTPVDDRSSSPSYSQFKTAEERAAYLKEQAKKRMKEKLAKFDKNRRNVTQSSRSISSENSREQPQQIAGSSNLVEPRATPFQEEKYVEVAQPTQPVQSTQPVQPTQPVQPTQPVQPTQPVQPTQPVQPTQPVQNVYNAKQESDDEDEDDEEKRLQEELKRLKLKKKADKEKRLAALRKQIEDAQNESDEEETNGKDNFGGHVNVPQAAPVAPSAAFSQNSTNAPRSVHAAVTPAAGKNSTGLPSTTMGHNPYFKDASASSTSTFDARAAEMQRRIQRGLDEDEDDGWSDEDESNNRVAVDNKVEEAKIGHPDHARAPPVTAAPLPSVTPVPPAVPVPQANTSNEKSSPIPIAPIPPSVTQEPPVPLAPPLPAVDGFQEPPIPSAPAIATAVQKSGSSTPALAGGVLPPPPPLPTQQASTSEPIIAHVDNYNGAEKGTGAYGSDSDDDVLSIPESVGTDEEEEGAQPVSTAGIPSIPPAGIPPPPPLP


Assays:
Ede1-mCherry = target: T1, Ede1-mCherry; experiment: FRET or BRET; acceptor photobleaching in live yeast; inner cytoplasmic (nucleus and vacuole free) areas; GFP/mCherry or mTurquoise2/mNeonGreen pairs; conditions: partners not purified
[1] = target: T2, Pan1, full length, with a C-terminal …; experiment: as above; conditions: partners not purified

Binder | FRET efficiency (Ede1-mCherry) [%] | FRET efficiency [1] [%]
Syp1-GFP (natural protein, S. cerevisiae, UniProt P25623 1-870, looked up, Syp1 (FCHo1/2 homolog), S. cerevisiae; gene tagged at its endogenous locus, no truncation told; Linker RTLQVD between protein and C-terminal tag; source: S. cerevisiae, expressed from its endogenous locus, in live cells; not shown: GFP, C-terminal, kept) MTEQRTKYADSILTTKSPYEATETIRIRLSQVKLLNKDFYLLFKELANLKRNYAQQLRKIIAENEDITKILNAQMIESNVLTPQEMSAFRFNSLGELRNVWDTVIEELKSDLKSSTEYYNTLDQQVVRELKESVENNTSWRESKDLHSKLSKNAASIEHYSKNNENSSHLEEARRQWDQQSPYLFELFETIDYNRLDTLKNCMLRFQTSFSDYLLNTTKECETVMTKFLAFEPQSEIDRFAKDASQYNFQLSSSSKEVVPNNASPASATGARPVSVSNGAANTEREKKSPQKDKRKSAFGNIGHRLASASSSLTHNDLMNNEFSDSTNNSSLKSKKSSHTLRSKVGSIFGRNKTKNKRQQQSSSNSHIQASITETPNNSSTRVSSTATSSIYQKQRRPTYSSSKSNNWTPGEASDTPPLPPHATPKNVDAPVTADTPPAQTFTPSEVPPSTPQQSSPPTAKEPDSSNLPKTVPISISQPPLQPQSKTKPLPVEPASPSISLPTATVDNQPSGQVDSRPLHIRAPALPPSRKQNFIHNRDSQLYDSLPNHGSGATPTSSSLSSIPQERPVSTLSSQITGELRELNPQATGSSTSLVGQSLFQHSSLDTSQFGLNASIAEVLNASFKDGMLQNSQLIGEIALNYLPNSVMNSPLPIGINLRINNGAKFEKVILNQAFIERVAPEEFKVNPSFIDSRTLGAIKYSIKEPIAPIVIHPVWRFESHQASVVLTVKMSPSLPDEISQIVIEDLVVFVNIDGANATSALSKPQGSFSKEKKRITWRFKEPVVLTRNGEGQRLIARFITDGLAHESAKGVITKFTISETDNVALPHSGAGSGITLTCQELDENNPFGGEWLDVNTKRTLTTGNYHGLA | 2.5 | 
GFP-End3 (natural protein, S. cerevisiae, UniProt P39013 1-349, looked up, End3, S. cerevisiae; gene tagged at its endogenous locus, no truncation told; Linker GS(GGGGS)3ATENNS between N-terminal tag and protein; also called N-terminus of End3; source: S. cerevisiae, expressed from its endogenous locus, in live cells; not shown: GFP, N-terminal, kept) MPKLEQFEIKKYWQIFSGLKPIENKVNHDQVLPILYNSKLDSSVLNKIWFLADIDDDDNLDFEEFVICMRLIFDMVNKNISSVPDELPDWLIPGSKVNLIKERKKRKQIENADLPPKKEIKVDWYMSPDDLNQYEKIYNSCAKLTDGTITFNELSTKLSTKFFNISKTDLNKVWSLINPQNLPSIDRDPTFYFIHCLRQRNDLGAEIPASLPNSLAEVCNKKQLSYDLRSSQPPTKRKEEANEVDNLRDNGQNSSSDSSGSNVLSNEDSIKQKYASLTDDQVANMREQLEGLLNYKKSEKTQGGSKLSKRINIRSITDDLDNIEQQVEVLENYLNNKRHELQALQAEIN |  | 4.5
